In patent US20170022287A1 (Chugai, published 2017):

How the values were obtained:
[1] = target: T1, CRD1-3; test: ELISA, coated CD137-Fc protein 2 µg/mL, antibody 10 or 5 µg/mL, absorbance 620 nm; Non (uncoated well) 0.101
T1 construct: also called fragmented human CD137-Fc fusion protein CRD1-3

[2] = target: T2, CRD2-4; test: as above
T2 construct: also called fragmented human CD137-Fc fusion protein CRD2-4

[3] = target: T3, CRD2-3; test: as above
T3 construct: also called fragmented human CD137-Fc fusion protein CRD2-3

[4] = target: full-length human CD137-Fc fusion protein (human); test: as above
[5] = target: T4, CRD1-2; test: as above
T4 construct: also called fragmented human CD137-Fc fusion protein CRD1-2

[6] = target: T5, CRD3-4; test: as above
T5 construct: also called fragmented human CD137-Fc fusion protein CRD3-4

[7] = target: T1, CRD1-3; test: ELISA, coated CD137-Fc protein 2 µg/mL, antibody 10 or 5 µg/mL; absorbance 620 nm divided by that of the uncoated well
[8] = target: T2, CRD2-4; test: as above
[9] = target: T3, CRD2-3; test: as above
[10] = target: full-length human CD137-Fc fusion protein (human); test: as above
[11] = target: T4, CRD1-2; test: as above
[12] = target: T5, CRD3-4; test: as above
[13] = target: T6, mouse Fcγ receptor III extracellular domain with C-terminal His tag (mouse, UniProt P08508 31-215); test: SPR (Biacore) kinetics, antibody captured on Protein L, mFcγR as analyte, 1:1 Langmuir model
T6 construct: extracellular domain; also called mFcγRIII; not shown: His tag at the C terminus
T6 sequence (looked up): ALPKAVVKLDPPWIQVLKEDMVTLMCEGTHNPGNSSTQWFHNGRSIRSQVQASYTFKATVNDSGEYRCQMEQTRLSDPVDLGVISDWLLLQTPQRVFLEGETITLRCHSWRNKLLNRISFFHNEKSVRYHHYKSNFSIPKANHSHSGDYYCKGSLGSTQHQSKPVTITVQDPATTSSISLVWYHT

[14] = target: T7, mouse Fcγ receptor II extracellular domain with C-terminal His tag (mouse, UniProt P08101 30-210); test: as above
T7 construct: extracellular domain; also called mFcγRII; mFcgRII; not shown: His tag at the C terminus
T7 sequence (looked up): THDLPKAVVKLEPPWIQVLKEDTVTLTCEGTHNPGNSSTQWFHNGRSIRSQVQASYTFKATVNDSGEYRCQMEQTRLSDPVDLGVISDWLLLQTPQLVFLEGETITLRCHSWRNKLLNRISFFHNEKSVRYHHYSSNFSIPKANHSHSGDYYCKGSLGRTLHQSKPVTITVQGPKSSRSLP

[15] = target: T6, mouse Fcγ receptor III extracellular …; test: SPR (Biacore); against naturally-occurring mIgG1 (H237-mIgG1/MRAL-k0)
Method: (§1) The interaction between each modified antibody and the Fcγ receptor prepared as mentioned above was analyzed using Biacore T100 (GE Healthcare), Biacore T200 (GE Healthcare), Biacore A100, and Biacore 4000. The running buffer used was HBS-EP+(GE Healthcare) and the measurement temperature was set to 25° C. The chip used was: a Series S Sensor Chip CM5 (GE Healthcare) or Series S Sensor Chip CM4 (GE Healthcare) to which Protein L (ACTIGEN or BioVision) was immobilized by the amine coupling method. Antibodies of interest were captured onto these sensor chips, and mFcγR diluted with the running buffer was allowed to interact with them. The amount bound by the antibodies was measured and compared between the antibodies. However, since the amount of mFcγR bound depends on the amount of the captured antibody, the comparison was carried out on corrected values obtained by dividing the amount of bound mFcγR by the amount of each antibody captured. Furthermore, 10 mM glycine-HCl, pH 1.5 was reacted to wash out the captured antibody from the sensor chips, and the sensor chip was regenerated and used repeatedly. Kinetic analyses for calculating the KD values of each altered antibody to FcγR were performed according to the method below. […] From those values, the dissociation constant KD (mol/L) was determined.

[16] = target: T7, mouse Fcγ receptor II extracellular …; test: as above
Method: as §1

[17] = target: T1, CRD1-3; test: ELISA, coated CD137-Fc protein 2 µg/mL, antibody 10 or 5 µg/mL, absorbance 620 nm; Non (uncoated well) 0.049
[18] = target: T2, CRD2-4; test: as above
[19] = target: T3, CRD2-3; test: as above
[20] = target: full-length human CD137-Fc fusion protein (human); test: as above
[21] = target: T4, CRD1-2; test: as above
[22] = target: T8, CRD1; test: as above
T8 construct: also called fragmented human CD137-Fc fusion protein CRD1

[23] = target: T5, CRD3-4; test: as above
[24] = target: T8, CRD1; test: ELISA, coated CD137-Fc protein 2 µg/mL, antibody 10 or 5 µg/mL; absorbance 620 nm divided by that of the uncoated well

T1 sequence (chain, as listed by the source limits assumed): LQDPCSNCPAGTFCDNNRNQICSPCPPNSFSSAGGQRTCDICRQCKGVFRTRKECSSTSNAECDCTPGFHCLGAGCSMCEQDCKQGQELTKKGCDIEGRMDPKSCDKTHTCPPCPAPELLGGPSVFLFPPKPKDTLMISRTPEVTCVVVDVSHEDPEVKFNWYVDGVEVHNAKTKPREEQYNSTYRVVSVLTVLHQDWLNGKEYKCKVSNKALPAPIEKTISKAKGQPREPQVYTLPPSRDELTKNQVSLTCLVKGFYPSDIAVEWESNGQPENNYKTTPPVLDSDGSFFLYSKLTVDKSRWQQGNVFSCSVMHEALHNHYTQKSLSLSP
full-length human CD137-Fc fusion protein (human), sequence (chain, as listed by the source limits assumed): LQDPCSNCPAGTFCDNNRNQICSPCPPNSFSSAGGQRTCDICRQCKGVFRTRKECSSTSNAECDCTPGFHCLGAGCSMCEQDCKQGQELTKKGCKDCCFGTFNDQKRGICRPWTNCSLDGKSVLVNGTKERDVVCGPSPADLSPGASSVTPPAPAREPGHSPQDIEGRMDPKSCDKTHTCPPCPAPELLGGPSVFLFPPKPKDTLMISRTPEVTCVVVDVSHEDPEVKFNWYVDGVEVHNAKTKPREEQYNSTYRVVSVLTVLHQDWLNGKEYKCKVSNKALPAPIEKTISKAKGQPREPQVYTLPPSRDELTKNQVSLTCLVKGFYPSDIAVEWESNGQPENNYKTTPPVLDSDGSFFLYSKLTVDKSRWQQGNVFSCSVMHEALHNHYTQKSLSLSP
T3 sequence (chain, as listed by the source limits assumed): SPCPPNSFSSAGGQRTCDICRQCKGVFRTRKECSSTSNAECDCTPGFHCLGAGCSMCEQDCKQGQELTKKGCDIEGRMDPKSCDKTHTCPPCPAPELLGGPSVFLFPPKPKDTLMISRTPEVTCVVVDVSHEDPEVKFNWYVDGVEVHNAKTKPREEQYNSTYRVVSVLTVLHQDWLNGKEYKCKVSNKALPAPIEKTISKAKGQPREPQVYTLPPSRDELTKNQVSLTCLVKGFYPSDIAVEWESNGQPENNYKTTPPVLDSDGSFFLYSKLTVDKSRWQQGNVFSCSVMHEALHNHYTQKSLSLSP
T4 sequence (chain, as listed by the source limits assumed): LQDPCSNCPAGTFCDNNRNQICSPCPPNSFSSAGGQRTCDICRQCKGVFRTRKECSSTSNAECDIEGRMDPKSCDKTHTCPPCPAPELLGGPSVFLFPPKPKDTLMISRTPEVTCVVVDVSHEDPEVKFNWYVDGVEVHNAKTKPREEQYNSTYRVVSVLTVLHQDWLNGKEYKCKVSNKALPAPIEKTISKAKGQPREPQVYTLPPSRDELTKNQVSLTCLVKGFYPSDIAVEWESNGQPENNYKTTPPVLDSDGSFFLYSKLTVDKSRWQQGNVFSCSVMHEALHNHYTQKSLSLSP
T2 sequence (chain, as listed by the source limits assumed): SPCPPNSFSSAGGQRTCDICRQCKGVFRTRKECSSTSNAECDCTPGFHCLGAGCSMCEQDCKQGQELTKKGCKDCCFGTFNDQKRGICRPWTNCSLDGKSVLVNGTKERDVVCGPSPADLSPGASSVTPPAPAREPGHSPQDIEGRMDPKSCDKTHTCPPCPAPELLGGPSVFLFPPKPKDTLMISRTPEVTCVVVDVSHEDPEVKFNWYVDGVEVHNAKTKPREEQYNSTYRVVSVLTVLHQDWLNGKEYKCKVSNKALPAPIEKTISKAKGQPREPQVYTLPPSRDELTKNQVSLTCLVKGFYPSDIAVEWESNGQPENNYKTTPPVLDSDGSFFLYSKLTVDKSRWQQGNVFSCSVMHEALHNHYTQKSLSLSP
T5 sequence (chain, as listed by the source limits assumed): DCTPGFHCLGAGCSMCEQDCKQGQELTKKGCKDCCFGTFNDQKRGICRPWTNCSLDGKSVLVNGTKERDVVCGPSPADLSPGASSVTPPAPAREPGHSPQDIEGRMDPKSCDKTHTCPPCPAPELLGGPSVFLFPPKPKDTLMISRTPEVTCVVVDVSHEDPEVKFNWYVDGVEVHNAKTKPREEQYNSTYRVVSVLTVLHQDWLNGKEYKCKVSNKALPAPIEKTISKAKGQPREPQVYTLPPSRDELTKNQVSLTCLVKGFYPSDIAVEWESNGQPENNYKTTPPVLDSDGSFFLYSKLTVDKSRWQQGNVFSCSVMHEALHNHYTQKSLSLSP
T8 sequence (chain, as listed by the source limits assumed): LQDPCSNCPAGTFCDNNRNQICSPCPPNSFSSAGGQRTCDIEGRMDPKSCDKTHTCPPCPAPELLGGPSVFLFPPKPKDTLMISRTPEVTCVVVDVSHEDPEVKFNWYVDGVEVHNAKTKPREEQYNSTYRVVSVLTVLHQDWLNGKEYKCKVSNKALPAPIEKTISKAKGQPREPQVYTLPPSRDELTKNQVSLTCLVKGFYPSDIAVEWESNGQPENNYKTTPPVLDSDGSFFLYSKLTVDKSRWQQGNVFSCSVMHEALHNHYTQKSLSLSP

B1: R10 (antibody, V domains shown)
VH: not shown
VL: DIQMTQSPSSLSASVGDRVTITCRASQSISSYLNWYQQKPGKAPKLLIYAASSLQSGVPSRFSGSGSGTDFTLTISSLQPEDFATYYCQQFDNFPLTFGGGTKVEIK
notes: Synthetic library clone; Fab on phage in the phage ELISA
ELISA color development level [1]: 2.46
ELISA color development level [2]: 2.46
ELISA color development level [3]: 2.64
ELISA color development level [4]: 2.59
ELISA color development level [5]: 0.222
ELISA color development level [6]: 2.75
Ratio with respect to Non-Coating [7]: 24.4
Ratio with respect to Non-Coating [8]: 24.3
Ratio with respect to Non-Coating [9]: 26.1
Ratio with respect to Non-Coating [10]: 25.6
Ratio with respect to Non-Coating [11]: 2.2
Ratio with respect to Non-Coating [12]: 27.2

B2: H237-MB492/MRAL-k0 (antibody, mouse IgG1, kappa)
heavy: QVQLQESGPGLVKPSETLSLTCAVSGHSISHDHAWSWVRQPPGEGLEWIGFISYSGITNYNPSLQGRVTISRDNSKNTLYLQMNSLRAEDTAVYYCARSLARTTAMDYWGEGTLVTVSSAKTTPPSVYPLAPGSAAQTNSMVTLGCLVKGYFPEPVTVTWNSGSLSSGVHTFPAVLQSDLYTLSSSVTVPSSTWPSETVTCNVAHPASSTKVDKKIVPRDCGCKPCICEPNEVEDVFIFPPKPKDVLTITLTPKVTCVVVDISKDDPEVQFSWFVDDVEVHTAQTQPREEQFNSTFRSVSELPIMHQDWLNGKEFKCRVDSAAFPAPIEKTISKTKGRPKAPQVYTIPPPKEQMAKDKVSLTCMITDFFPEDITVEWQWNGQPAENYKNTQPIMDTDGSYFVYSKLNVQKSNWEAGNTFTCSVLHEGLHNHHTEKSLSHSPGK
light: not shown
notes: Mouse IgG1 constant region variant MB492 (T230E, V231P, P232N, S238E, S239D, N324D, as described for 1D8VH-MB492); copies: 2 + 2
Kd [13]: 25.8 nM
Kd [14]: 0.338 nM
Relative binding activity [15]: 10.9 fold (mIgG1 = 1)
Relative binding activity [16]: 622 fold (mIgG1 = 1)

B3: B (antibody, human IgG1, kappa, V domains shown)
VH: QVQLQQWGAGLLKPSETLSLTCAVYGGSFSGYYWSWIRQSPEKGLEWIGEINHGGYVTYNPSLESRVTISVDTSKNQFSLKLSSVTAADTAVYYCARDYGPGNYDWYFDLWGRGTLVTVSS
VL: EIVLTQSPATLSLSPGERATLSCRASQSVSSYLAWYQQKPGQAPRLLIYDASNRATGIPARFSGSGSGTDFTLTISSLEPEDFAVYYCQQRSNWPPALTFGGGTKVEIKR
notes: also called Control B
ELISA color development level [17]: 2.33
ELISA color development level [18]: 0.097
ELISA color development level [19]: 0.089
ELISA color development level [20]: 2.67
ELISA color development level [21]: 2.58
ELISA color development level [22]: 1.75
ELISA color development level [23]: 0.074
Ratio with respect to Non-Coating [7]: 47.5
Ratio with respect to Non-Coating [8]: 2
Ratio with respect to Non-Coating [9]: 1.8
Ratio with respect to Non-Coating [10]: 54.6
Ratio with respect to Non-Coating [11]: 52.7
Ratio with respect to Non-Coating [24]: 35.7
Ratio with respect to Non-Coating [12]: 1.5
